# Biological target: FLAG-tagged R2FasL (pFLAG-FlkFasL; FlkFasL with an N-terminal FLAG epitope tag) (mouse; human) (UniProt P35918)
# Assay: cell-based or functional assay
# Sequence of FLAG-tagged R2FasL (pFLAG-FlkFasL; FlkFasL with an N-terminal FLAG epitope tag) (mouse; human) (P35918 other isoform, or with tags, fused parts or gaps): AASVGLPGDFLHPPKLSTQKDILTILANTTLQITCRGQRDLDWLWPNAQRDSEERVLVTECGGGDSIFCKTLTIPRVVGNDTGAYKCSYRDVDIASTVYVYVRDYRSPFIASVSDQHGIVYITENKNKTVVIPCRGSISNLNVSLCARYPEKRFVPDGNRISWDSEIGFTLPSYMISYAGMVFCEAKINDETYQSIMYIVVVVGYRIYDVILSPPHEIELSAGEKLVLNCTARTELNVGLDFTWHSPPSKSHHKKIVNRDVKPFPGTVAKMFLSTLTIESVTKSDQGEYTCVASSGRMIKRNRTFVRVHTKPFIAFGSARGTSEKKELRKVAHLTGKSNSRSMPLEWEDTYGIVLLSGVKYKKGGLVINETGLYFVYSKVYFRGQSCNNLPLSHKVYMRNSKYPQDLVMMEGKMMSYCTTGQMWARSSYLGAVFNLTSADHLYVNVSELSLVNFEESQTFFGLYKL
substance,measurement,value
recombinant human VEGF-165 (from UniProt P15692 27-191) (ligand),"ED50 (viability of Jurkat E6.1 cells, resazurin assay)",0.02 to 0.2 nM

# From patent publication US20090214508A1
